Measured values from publication PMC12048676.
Values belong to the substance of their own block, whether it stands above or below them.

Key:
[1] = molecular target: prenylated A647-Cdc42 (human) (UniProt P60953)
RhoGDI1 (Homo sapiens) = RhoGDI1 (Homo sapiens) (UniProt P52565); details: cited from earlier work
[2] = molecular target: biotin-Cy3-Cdc42 (geranylgeranylated) (human) (UniProt P60953); test: single-molecule dual-color TIRF microscopy, co-recruitment; 100 pM biotin-Cy3-Cdc42:A647-RhoGDI1 complex, imaged <2 min after dilution, captured on neutravidin-coated biotin-PEG coverslips; 50 mM HEPES pH 7.5, 50 mM NaCl, 2 mM MgCl2; 22 ms per frame; 23 °C
[3] = molecular target: geranylgeranylated Cy3-Cdc42 (human) (UniProt P60953)
[4] = molecular target: prenylated A647-Cdc42 (human) (UniProt P60953); remark: listed apart in the source
[5] = molecular target: prenylated A647-Cdc42 (human) (UniProt P60953); remark: listed apart in the source

Sequence of UniProt P52565 (P52565 2-204): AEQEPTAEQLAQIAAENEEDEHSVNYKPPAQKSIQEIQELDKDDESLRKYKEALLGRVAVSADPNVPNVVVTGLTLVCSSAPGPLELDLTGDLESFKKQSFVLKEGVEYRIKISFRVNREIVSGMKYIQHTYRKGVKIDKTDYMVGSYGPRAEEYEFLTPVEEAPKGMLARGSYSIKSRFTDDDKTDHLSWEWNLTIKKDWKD
Sequence of Cdc42 (P60953 1-188): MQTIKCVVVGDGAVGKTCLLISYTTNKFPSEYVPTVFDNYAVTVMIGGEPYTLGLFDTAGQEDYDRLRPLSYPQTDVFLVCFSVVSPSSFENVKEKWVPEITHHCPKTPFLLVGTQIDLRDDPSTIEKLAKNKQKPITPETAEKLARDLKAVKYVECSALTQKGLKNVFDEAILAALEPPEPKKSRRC

- patterning index of A647-Cdc42 (inside against outside of GEF-containing areas) after GEF addition in the presence of Atto488-N-WASP [1]: 1.35
Substance: full-length Atto488-N-WASP (from UniProt O00401 1-505) (natural protein)

Substance: Cdc42 (from UniProt P60953)
- Kd (RhoGDI1 (Homo sapiens)): 0.09 nM

- fraction of Cdc42 molecules co-recruited with RhoGDI1 [2]: 63%
Substance: A647-RhoGDI1 (from UniProt P19803 1-204) (natural protein)

- maximal rate of nucleotide exchange (Cy5-GDP to unlabeled GDP) from Cy5-GDP:Cy3-Cdc42:RhoGDI1 complexes (100 nM) with ITSNcat-His10 pre-bound to PM LUVs, GEF concentration varied [3]: 0.0002 s⁻¹
- concentration of Cdc42:RhoGDI1 complexes against free Cdc42 needed to reach similar levels of membrane-bound GTPase on SLBs (600 nM vs 5.5 nM) [4]: 100 fold
Substance: RhoGDI1 (unlabeled) (from UniProt P19803 1-204) (natural protein)

- dwell time of A647-Cdc42 on the membrane inside the GEF-containing region in microfluidic flow-out, with 2xwCRIB [5]: 1.4 fold
Substance: A488-2xwCRIB (from UniProt P42768 201-268; P42768 201-268) (domain or fragment)
